# From PMC3783652
# Target: CXCL12_(2), constitutively dimeric CXCL12 variant (locked dimer) (UniProt P48061)
# Experiment: NMR titration
row,Binder,Kd [µM]
1,"SDNYTEE (HELM PEPTIDE1{[ac].S.D.N.[O=C([C@H](Cc1ccc(OS(=O)(=O)O)cc1)N[*:1])[*:2]].T.E.E.[am]}$$$$V2.0; SMILES CC(=O)N[C@@H](CO)C(=O)N[C@@H](CC(=O)O)C(=O)N[C@@H](CC(N)=O)C(=O)N[C@@H](Cc1ccc(OS(=O)(=O)O)cc1)C(=O)N[C@H](C(=O)N[C@@H](CCC(=O)O)C(=O)N[C@@H](CCC(=O)O)C(N)=O)[C@@H](C)O) [9SDNsYTEE15, sTyr12 sulfopeptide of CXCR4]",266
2,"Ac-SDNYTEE-NH2 [9SDNYTEE15, unsulfated Tyr12 peptide of CXCR4]",332
3,"ISIYTSD (HELM PEPTIDE1{[ac].I.S.I.[O=C([C@H](Cc1ccc(OS(=O)(=O)O)cc1)N[*:1])[*:2]].T.S.D.[am]}$$$$V2.0; SMILES CC[C@H](C)[C@H](NC(C)=O)C(=O)N[C@@H](CO)C(=O)N[C@H](C(=O)N[C@@H](Cc1ccc(OS(=O)(=O)O)cc1)C(=O)N[C@H](C(=O)N[C@@H](CO)C(=O)N[C@@H](CC(=O)O)C(N)=O)[C@@H](C)O)[C@@H](C)CC) [4ISIsYTSD10, sTyr7 sulfopeptide of CXCR4]",386
4,"Ac-ISIYTSD-NH2 [4ISIYTSD10, unsulfated Tyr7 peptide of CXCR4]",418
5,"SGDYDSM (HELM PEPTIDE1{[ac].S.G.D.[O=C([C@H](Cc1ccc(OS(=O)(=O)O)cc1)N[*:1])[*:2]].D.S.M.[am]}$$$$V2.0; SMILES CSCC[C@H](NC(=O)[C@H](CO)NC(=O)[C@H](CC(=O)O)NC(=O)[C@H](Cc1ccc(OS(=O)(=O)O)cc1)NC(=O)[C@H](CC(=O)O)NC(=O)CNC(=O)[C@H](CO)NC(C)=O)C(N)=O) [18SGDsYDSM24, sTyr21 sulfopeptide of CXCR4]",211
6,"Ac-SGDYDSM-NH2 [18SGDYDSM24, unsulfated Tyr21 peptide of CXCR4]",831
